Experimental data: patent publication US20230158141A1 (YAFEI SHANGHAI BIOLOG MEDICINE SCIENCE AND TECHNOLOGY, published 2023)

Experiments:
PD-1 [1] = target: T1, PD-1 (UniProt Q15116 25-167, limits assumed); test: ELISA; S9 on the Cys
PD-1 [2] = target: T1, PD-1; test: ELISA; S13 on the Cys
PD-1 [3] = target: T1, PD-1; test: ELISA; Cys mutant, no arm

T1 sequence (Q15116 25-167 limits assumed): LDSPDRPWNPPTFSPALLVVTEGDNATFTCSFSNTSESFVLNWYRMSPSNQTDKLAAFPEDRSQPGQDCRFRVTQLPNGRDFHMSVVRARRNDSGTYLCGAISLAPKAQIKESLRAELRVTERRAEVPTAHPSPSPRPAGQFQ

binding activity, % of wild type (PD-1 [1]) [%] | binding activity, % of wild type (PD-1 [2]) [%] | binding activity, % of wild type (PD-1 [3]) [%] | Binder
59.9 | 32.1 | 89.6 | anti-PD-1 antibody 2 HC Thr98Cys (antibody, human IgG4 S228P, kappa, V domains shown, arm on Cys98 as named in each row) VH: QVQLVESGGGVVQPGRSLRLDCKASGITFSNSGMHWVRQAPGKGLEWVAVIWYDGSKRYYADSVKGRFTISRDNSKNTLFLQMNSLRAEDTAVYYCACNDDYWGQGTLVTVSS VL: EIVLTQSPATLSLSPGERATLSCRASQSVSSYLAWYQQKPGQAPRLLIYDASNRATGIPARFSGSGSGTDFTLTISSLEPEDFAVYYCQQSSNWPRTFGQGTKVEIKR
86.3 | 42.4 | 92.2 | anti-PD-1 antibody 2 HC Thr78Cys (antibody, human IgG4 S228P, kappa, V domains shown, arm on Cys78 as named in each row) VH: QVQLVESGGGVVQPGRSLRLDCKASGITFSNSGMHWVRQAPGKGLEWVAVIWYDGSKRYYADSVKGRFTISRDNSKNCLFLQMNSLRAEDTAVYYCATNDDYWGQGTLVTVSS VL: EIVLTQSPATLSLSPGERATLSCRASQSVSSYLAWYQQKPGQAPRLLIYDASNRATGIPARFSGSGSGTDFTLTISSLEPEDFAVYYCQQSSNWPRTFGQGTKVEIKR
29.9 | 15 | 86.4 | anti-PD-1 antibody 2 HC Thr28Cys (antibody, human IgG4 S228P, kappa, V domains shown, arm on Cys28 as named in each row) VH: QVQLVESGGGVVQPGRSLRLDCKASGICFSNSGMHWVRQAPGKGLEWVAVIWYDGSKRYYADSVKGRFTISRDNSKNTLFLQMNSLRAEDTAVYYCATNDDYWGQGTLVTVSS VL: EIVLTQSPATLSLSPGERATLSCRASQSVSSYLAWYQQKPGQAPRLLIYDASNRATGIPARFSGSGSGTDFTLTISSLEPEDFAVYYCQQSSNWPRTFGQGTKVEIKR
48.9 | 21.7 | 86 | anti-PD-1 antibody 2 HC Thr91Cys (antibody, human IgG4 S228P, kappa, V domains shown, arm on Cys91 as named in each row) VH: QVQLVESGGGVVQPGRSLRLDCKASGITFSNSGMHWVRQAPGKGLEWVAVIWYDGSKRYYADSVKGRFTISRDNSKNTLFLQMNSLRAEDCAVYYCATNDDYWGQGTLVTVSS VL: EIVLTQSPATLSLSPGERATLSCRASQSVSSYLAWYQQKPGQAPRLLIYDASNRATGIPARFSGSGSGTDFTLTISSLEPEDFAVYYCQQSSNWPRTFGQGTKVEIKR

The remaining lines, values behind:

Binder | binding activity, % of wild type (PD-1 [1]) [%] | binding activity, % of wild type (PD-1 [2]) [%] | binding activity, % of wild type (PD-1 [3]) [%]
anti-PD-1 antibody 2 HC Gly42Cys (antibody, human IgG4 S228P, kappa, V domains shown, arm on Cys42 as named in each row) VH: QVQLVESGGGVVQPGRSLRLDCKASGITFSNSGMHWVRQAPCKGLEWVAVIWYDGSKRYYADSVKGRFTISRDNSKNTLFLQMNSLRAEDTAVYYCATNDDYWGQGTLVTVSS VL: EIVLTQSPATLSLSPGERATLSCRASQSVSSYLAWYQQKPGQAPRLLIYDASNRATGIPARFSGSGSGTDFTLTISSLEPEDFAVYYCQQSSNWPRTFGQGTKVEIKR | 63.6 | 29.8 | 83.4
anti-PD-1 antibody 2 HC Ser17Cys (antibody, human IgG4 S228P, kappa, V domains shown, arm on Cys17 as named in each row) VH: QVQLVESGGGVVQPGRCLRLDCKASGITFSNSGMHWVRQAPGKGLEWVAVIWYDGSKRYYADSVKGRFTISRDNSKNTLFLQMNSLRAEDTAVYYCATNDDYWGQGTLVTVSS VL: EIVLTQSPATLSLSPGERATLSCRASQSVSSYLAWYQQKPGQAPRLLIYDASNRATGIPARFSGSGSGTDFTLTISSLEPEDFAVYYCQQSSNWPRTFGQGTKVEIKR | 75.3 | 42.4 | 85
anti-PD-1 antibody 2 HC Ser30Cys (antibody, human IgG4 S228P, kappa, V domains shown, arm on Cys30 as named in each row) VH: QVQLVESGGGVVQPGRSLRLDCKASGITFCNSGMHWVRQAPGKGLEWVAVIWYDGSKRYYADSVKGRFTISRDNSKNTLFLQMNSLRAEDTAVYYCATNDDYWGQGTLVTVSS VL: EIVLTQSPATLSLSPGERATLSCRASQSVSSYLAWYQQKPGQAPRLLIYDASNRATGIPARFSGSGSGTDFTLTISSLEPEDFAVYYCQQSSNWPRTFGQGTKVEIKR | 31.8 | 15.3 | 89.7
anti-PD-1 antibody 2 HC Ser75Cys (antibody, human IgG4 S228P, kappa, V domains shown, arm on Cys75 as named in each row) VH: QVQLVESGGGVVQPGRSLRLDCKASGITFSNSGMHWVRQAPGKGLEWVAVIWYDGSKRYYADSVKGRFTISRDNCKNTLFLQMNSLRAEDTAVYYCATNDDYWGQGTLVTVSS VL: EIVLTQSPATLSLSPGERATLSCRASQSVSSYLAWYQQKPGQAPRLLIYDASNRATGIPARFSGSGSGTDFTLTISSLEPEDFAVYYCQQSSNWPRTFGQGTKVEIKR | 38.7 | 14.6 | 96.3
anti-PD-1 antibody 2 HC Ser85Cys (antibody, human IgG4 S228P, kappa, V domains shown, arm on Cys85 as named in each row) VH: QVQLVESGGGVVQPGRSLRLDCKASGITFSNSGMHWVRQAPGKGLEWVAVIWYDGSKRYYADSVKGRFTISRDNSKNTLFLQMNCLRAEDTAVYYCATNDDYWGQGTLVTVSS VL: EIVLTQSPATLSLSPGERATLSCRASQSVSSYLAWYQQKPGQAPRLLIYDASNRATGIPARFSGSGSGTDFTLTISSLEPEDFAVYYCQQSSNWPRTFGQGTKVEIKR | 69.4 | 32.3 | 98.8
anti-PD-1 antibody 2 HC Gly44Cys (antibody, human IgG4 S228P, kappa, V domains shown, arm on Cys44 as named in each row) VH: QVQLVESGGGVVQPGRSLRLDCKASGITFSNSGMHWVRQAPGKCLEWVAVIWYDGSKRYYADSVKGRFTISRDNSKNTLFLQMNSLRAEDTAVYYCATNDDYWGQGTLVTVSS VL: EIVLTQSPATLSLSPGERATLSCRASQSVSSYLAWYQQKPGQAPRLLIYDASNRATGIPARFSGSGSGTDFTLTISSLEPEDFAVYYCQQSSNWPRTFGQGTKVEIKR | 78.3 | 30.8 | 99.3
anti-PD-1 antibody 2 HC Ser25Cys (antibody, human IgG4 S228P, kappa, V domains shown, arm on Cys25 as named in each row) VH: QVQLVESGGGVVQPGRSLRLDCKACGITFSNSGMHWVRQAPGKGLEWVAVIWYDGSKRYYADSVKGRFTISRDNSKNTLFLQMNSLRAEDTAVYYCATNDDYWGQGTLVTVSS VL: EIVLTQSPATLSLSPGERATLSCRASQSVSSYLAWYQQKPGQAPRLLIYDASNRATGIPARFSGSGSGTDFTLTISSLEPEDFAVYYCQQSSNWPRTFGQGTKVEIKR | 48.7 | 27 | 99.8
anti-PD-1 antibody 2 HC Ser71Cys (antibody, human IgG4 S228P, kappa, V domains shown, arm on Cys71 as named in each row) VH: QVQLVESGGGVVQPGRSLRLDCKASGITFSNSGMHWVRQAPGKGLEWVAVIWYDGSKRYYADSVKGRFTICRDNSKNTLFLQMNSLRAEDTAVYYCATNDDYWGQGTLVTVSS VL: EIVLTQSPATLSLSPGERATLSCRASQSVSSYLAWYQQKPGQAPRLLIYDASNRATGIPARFSGSGSGTDFTLTISSLEPEDFAVYYCQQSSNWPRTFGQGTKVEIKR | 56.9 | 22.9 | 81.4
